{"source": "paper PMC7477763", "target": "B-Ub-MERS27-VME (UniProt P0CG48)", "sequence (P0CG48 whole entry, looked up)": "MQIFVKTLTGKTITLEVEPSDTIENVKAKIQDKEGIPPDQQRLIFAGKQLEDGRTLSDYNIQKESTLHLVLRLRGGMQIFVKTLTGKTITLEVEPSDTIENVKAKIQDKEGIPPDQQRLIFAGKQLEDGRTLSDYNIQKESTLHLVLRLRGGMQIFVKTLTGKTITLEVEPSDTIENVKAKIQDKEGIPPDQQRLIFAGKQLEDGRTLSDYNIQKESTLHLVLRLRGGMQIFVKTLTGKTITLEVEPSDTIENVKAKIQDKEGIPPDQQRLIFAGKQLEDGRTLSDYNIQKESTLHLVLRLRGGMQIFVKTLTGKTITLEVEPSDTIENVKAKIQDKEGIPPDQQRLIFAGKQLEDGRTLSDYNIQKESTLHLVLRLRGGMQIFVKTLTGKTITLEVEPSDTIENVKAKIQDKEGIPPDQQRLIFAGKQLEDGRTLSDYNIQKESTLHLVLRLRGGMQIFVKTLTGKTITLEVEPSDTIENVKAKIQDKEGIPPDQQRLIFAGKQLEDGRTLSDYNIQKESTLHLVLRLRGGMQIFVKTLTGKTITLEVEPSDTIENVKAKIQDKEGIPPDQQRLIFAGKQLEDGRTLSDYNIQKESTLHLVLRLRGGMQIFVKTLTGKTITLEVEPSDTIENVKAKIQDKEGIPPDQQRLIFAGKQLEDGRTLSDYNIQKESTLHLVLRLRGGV", "data": [{"substance": "Middle East respiratory syndrome papain-like protease (MERS PLpro), recombinant", "values": [{"measurement": "kobs/I", "result": "22 144 ± 1431 M^–1 s^–1"}]}]}
